The text below walks through data of the supplement of paper PMC10567573.

± gives the standard deviation.

This data set is described as follows: protein stability index of a GFP-peptide fusion (GPS, HEK-293T) (PSI 1-6); higher = more stable. The conditions noted are these: c terminus: a fixed tail appended.
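Also: 24-mer peptide tiles fused after GFP, lentivirally expressed, FACS-sorted into six equal bins by GFP/DsRed ratio, decoded by Illumina sequencing, PSI is the read-weighted mean bin number.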

For NFPQCVLEISDQEVLEWYTAKDFI [EFHC1], the protein stability index turned out to be 2.51 ± 0.33 (treatment: DMSO) and 2.6 ± 0.45 (treatment: MLN4924 1 uM, 8 h).
For NGEARQLPEDDGLEQDLQQVMVSG [ARFIP2], the protein stability index reads like this: (treatment: DMSO) 5.36 ± 0.22; (treatment: MLN4924 1 uM, 8 h) 5.49 ± 0.2.
In the case of NHAIDIICGFLKERCFRGSSYPVC [OAS1], the protein stability index is, setting by setting: (treatment: DMSO) 2.88 ± 0.38; (treatment: MLN4924 1 uM, 8 h) 2.6 ± 0.44.
In the same order, the values of NICENTEGAIAVHCKAGLGRTGTL [CDC14A] are 3.13 ± 0.22 and 3.21 ± 0.3.
Take NIPGNSTLITAVELERFVNLHSLA [FBXO33]: the protein stability index was found to be 2.27 ± 0.24 (treatment: DMSO) and 2.23 ± 0.37 (treatment: MLN4924 1 uM, 8 h).
Regarding NIVEYLIQEQPGQEQVAGGEAQPG [FEM1A], the protein stability index worked out at 4.33 ± 0.25 (treatment: DMSO) and 4.15 ± 0.47 (treatment: MLN4924 1 uM, 8 h).
In the same order, the values of NIYYYLEDDSMSVIEPVVENSGIL [EFHC1] are 2.45 ± 0.43 and 2.41 ± 0.42.
NKAAVMVHQLSKKEASRHAIMRSP [CTNNB1]: the protein stability index stood at 3.86 ± 0.16 (treatment: DMSO) and 3.8 ± 0.2 (treatment: MLN4924 1 uM, 8 h).
In the same order, the values of NKLLLSIIILLELAILGGLVYYKF [VTI1B] are 2.96 ± 0.57 and 2.84 ± 0.49.
The sequence NLHRVAAHELGHSLGLSHSTDIGA [MMP1] came in with a protein stability index (treatment: DMSO) of 3.48 ± 0.33 and a protein stability index (treatment: MLN4924 1 uM, 8 h) of 3.57 ± 0.33.
As for NLLSPLLTGTESPFDLEQQWQDLM [NFE2L1], the protein stability index reads like this: (treatment: DMSO) 3.12 ± 0.21; (treatment: MLN4924 1 uM, 8 h) 3.17 ± 0.041.
In the same order, the values of NMHLNLRPFDCPVCNKKFKMKHHL [ZBTB22] are 2.4 ± 0.2 and 2.81 ± 0.35.
The corresponding values for NMSKEDAMVEFVKLLNRCCHLFST [ACBD3] are 2.24 ± 0.16 and 2.29 ± 0.39.
With NNLEPILEGYISNLRKQLETLSGD [KRT71], the protein stability index by setting is: (treatment: DMSO) 3.07 ± 0.26; (treatment: MLN4924 1 uM, 8 h) 3.18 ± 0.35.
In the same order, the values of NQNRAYVTLAAHFLGLGAPNCLSM [ZBED1] are 3.07 ± 0.95 and 3.08 ± 0.59.
For the setting “treatment: DMSO”, NSTSVKKKSSRNIFSIVFVFFVCF [P2RY14] had a protein stability index of 2 ± 0.64.
In turn, NSWMGSQGPMSQRRENYGVPPRRA [RBMY1A1] came in with a protein stability index (treatment: DMSO) of 4.65 ± 0.26 and a protein stability index (treatment: MLN4924 1 uM, 8 h) of 4.28 ± 0.16.
Turning to NTRGTGSSSSGVLMVGPNFRVGKK [CSNK1G3], the protein stability index was found to be 4.48 ± 0.2 (treatment: DMSO) and 4.51 ± 0.18 (treatment: MLN4924 1 uM, 8 h).
The corresponding values for NVIDRMKESSPSGSKSQRYSGAYG [CHCHD3] are 4.13 ± 0.4 and 4.13 ± 0.15.
The corresponding values for PAEQAFWCLVQICEKYLPGYYSEK [TBC1D10A] are 3.37 ± 0.55 and 3.46 ± 0.48.
For PAFIIVKLSPLRDRLVVTECQLTH [ZSWIM9], the protein stability index by setting is: (treatment: DMSO) 3.33 ± 0.57; (treatment: MLN4924 1 uM, 8 h) 3.02 ± 0.54.
In the same order, the values of PAHKNLNKQAYDLAKALLKRTAQA [PDS5B] are 2.22 ± 0.16 and 2.51 ± 0.18.
For the sequence PAISITENVLHFKAQGHGAKGDNV [HACD3], the protein stability index reads like this: (treatment: DMSO) 4.54 ± 0.095; (treatment: MLN4924 1 uM, 8 h) 4.57 ± 0.37.
Take PAKAANRTPPKSPGDPSKDRAAKR [TPPP]: the protein stability index stood at 5.22 ± 0.38 (treatment: DMSO) and 5.21 ± 0.32 (treatment: MLN4924 1 uM, 8 h).
In the same order, the values of PAPKSTYECRCIGEEKEMWNFGEK [TIA1] are 3.86 ± 0.23 and 3.85 ± 0.33.
In the same order, the values of PAPSPHEEPCSPGLLQDQGSGLSS [CBY2] are 5.31 ± 0.22 and 5.194 ± 0.04.
The corresponding values for PASGSGADSEPARHIFSFSWLNSL [TRIM55] are 2.36 ± 0.16 and 2.5 ± 0.21.
With PASGSTFRGRRDVSGSWERDQQVE [RETREG3], the protein stability index (treatment: DMSO) stood at 4.67 ± 0.22 and the protein stability index (treatment: MLN4924 1 uM, 8 h) was determined as 4.86 ± 0.28.
In the same order, the values of PATEEQEAASSSSTLVEVTLGEVP [MAGEA3] are 5.52 ± 0.17 and 5.51 ± 0.17.
